This passage reports K0.5 and kcat results from paper PMC7828395, “Mapping the DNA-Binding Motif of Scabin Toxin, a Guanine Modifying Enzyme from Streptomyces scabies” (Toxins, 2021).

A value given as a limit tells only on which side of the number the result lay.

In the series the test system is Nc1nc2c(ncn2[C@@H]2O[C@H](COP(=O)(O)O)[C@@H](O)[C@H]2O)c(=O)[nH]1. Nature of the series: purified protein. To be noted: pH 7.9.

(Streptomyces scabiei 87.22): the K0.5 turned out to be 289 ± 18 µM and the kcat was more than 3 s⁻¹.
